Source: patent publication US20210300987A1 (published 2021)
Residue numbers refer to the chain shown, from its start.

T1: HA-1^H (minor histocompatibility antigen 1, HMHA1 gene, H allele) peptide on HLA-A*02:01 (human)
T1 peptide: VLHDDLLEA

T2: HA-1^R (minor histocompatibility antigen 1, HMHA1 gene, R allele) peptide on HLA-A*02:01 (human)
T2 peptide: VLRDDLLEA

T3: Astn1 P1268L (control peptide) peptide on HLA-A*02:01 (human)
T3 peptide: KLYGLDWAEL

B1: TCR_6 (TCR, V domains shown)
Valpha: GEDVEQSLFLSVREGDSSVINCTYTDSSSTYLYWYKQEPGAGLQLLTYIFSNMDMKQDQRLTVLLNKKDKHLSLRIADTQTGDSAIYFCAEKWIIFGKGTRLHILP
Vbeta: DTGVSQNPRHKITKRGQNVTFRCDPISEHNRLYWYRQTLGQGPEFLTYFQNEAQLEKSRLLSDRFSAERPKGSFSTLEIQRTEQGDSAMYLCASSLTTPDGYTFGSGTRLTVV
B2: TCR_2 (TCR, V domains shown)
Valpha: GENVEQHPSTLSVQEGDSAVIKCTYSDSASNYFPWYKQELGKGPQLIIDIRSNVGEKKDQRIAVTLNKTAKHFSLHITETQPEDSAVYFCAAHTPGYSTLTFGKGTMLLVSP
Vbeta: DTGVSQNPRHKITKRGQNVTFRCDPISEHNRLYWYRQTLGQGPEFLTYFQNEAQLEKSRLLSDRFSAERPKGSFSTLEIQRTEQGDSAMYLCASSPRAGGETQYFGPGTRLLVL
B3: TCR_1 (TCR, V domains shown)
Valpha: GENVEQHPSTLSVQEGDSAVIKCTYSDSASNYFPWYKQELGKGPQLIIDIRSNVGEKKDQRIAVTLNKTAKHFSLHITETQPEDSAVYFCAASDLNFGKGTSLLVTP
Vbeta: DTGVSQNPRHKITKRGQNVTFRCDPISEHNRLYWYRQTLGQGPEFLTYFQNEAQLEKSRLLSDRFSAERPKGSFSTLEIQRTEQGDSAMYLCASSLVSRVDGYTFGSGTRLTVV
B4: TCR_3 (TCR, V domains shown)
Valpha: SQQGEEDPQALSIQEGENATMNCSYKTSINNLQWYRQNSGRGLVHLILIRSNEREKHSGRLRVTLDTSKKSSSLLITASRAADTASYFCATGDQTGANNLFFGTGTRLTVIP
Vbeta: B1 Vbeta with T98R, P99T, D100E, G101K, Y102L, T103F, R109Q, T111S, V113L
B5: TCR_5 (TCR, V domains shown)
Valpha: TQLLEQSPQFLSIQEGENLTVYCNSSSVFSSLQWYRQEPGEGPVLLVTVVTGGEVKKLKRLTFQFGDARKDSSLHITAAQTGDTGLYLCAGAGNNDMRFGAGTRLTVKP
Vbeta: B1 Vbeta with T97V, T98R, P99G, D100I, G101E, Y102A, T103F, S106Q
B6: TCR_4 (TCR, V domains shown)
Valpha: GENVEQHPSTLSVQEGDSAVIKCTYSDSASNYFPWYKQELGKGPQLIIDIRSNVGEKKDQRIAVTLNKTAKHFSLHITETQPEDSAVYFCAGRGKLTFGTGTRLTIIP
Vbeta: B1 Vbeta with T97V, T98R, P99D, D100E, G101K, Y102L, T103F, R109Q, T111S, V113L
B7: TCR_3, P01849 1-136 (TCR, not shown: a dimerising Fc or GST)
TCR alpha: SQQGEEDPQALSIQEGENATMNCSYKTSINNLQWYRQNSGRGLVHLILIRSNEREKHSGRLRVTLDTSKKSSSLLITASRAADTASYFCATGDQTGANNLFFGTGTRLTVIPYIQNPEPAVYQLKDPRSQDSTLCLFTDFDSQINVPKTMESGTFITDKTVLDMKAMDSKSNGAIAWSNQTSFTCQDIFKETNATYPSSDVPCDATLTEKSFETDMNLNFQNLSVMGLRILLLKVAGFNLLMTLRLWSS
TCR beta: DTGVSQNPRHKITKRGQNVTFRCDPISEHNRLYWYRQTLGQGPEFLTYFQNEAQLEKSRLLSDRFSAERPKGSFSTLEIQRTEQGDSAMYLCASSLTRTEKLFFGSGTQLSVLE
B8: TCR_4, P01849 1-136 (TCR, not shown: a dimerising Fc or GST)
TCR alpha: GENVEQHPSTLSVQEGDSAVIKCTYSDSASNYFPWYKQELGKGPQLIIDIRSNVGEKKDQRIAVTLNKTAKHFSLHITETQPEDSAVYFCAGRGKLTFGTGTRLTIIPNIQNPEPAVYQLKDPRSQDSTLCLFTDFDSQINVPKTMESGTFITDKTVLDMKAMDSKSNGAIAWSNQTSFTCQDIFKETNATYPSSDVPCDATLTEKSFETDMNLNFQNLSVMGLRILLLKVAGFNLLMTLRLWSS
TCR beta: B7 TCR beta with T97V, T99D
B9: TCR_6, P01849 1-136 (TCR, not shown: a dimerising Fc or GST)
TCR alpha: RGEDVEQSLFLSVREGDSSVINCTYTDSSSTYLYWYKQEPGAGLQLLTYIFSNMDMKQDQRLTVLLNKKDKHLSLRIADTQTGDSAIYFCAEKWIIFGKGTRLHILPNIQNPEPAVYQLKDPRSQDSTLCLFTDFDSQINVPKTMESGTFITDKTVLDMKAMDSKSNGAIAWSNQTSFTCQDIFKETNATYPSSDVPCDATLTEKSFETDMNLNFQNLSVMGLRILLLKVAGFNLLMTLRLWSS
TCR beta: B7 TCR beta with R98T, T99P, E100D, K101G, L102Y, F103T, Q109R, S111T, L113V
B10: TCR_5, P01849 1-136 (TCR, not shown: a dimerising Fc or GST)
TCR alpha: TQLLEQSPQFLSIQEGENLTVYCNSSSVFSSLQWYRQEPGEGPVLLVTVVTGGEVKKLKRLTFQFGDARKDSSLHITAAQTGDTGLYLCAGAGNNDMRFGAGTRLTVKPNIQNPEPAVYQLKDPRSQDSTLCLFTDFDSQINVPKTMESGTFITDKTVLDMKAMDSKSNGAIAWSNQTSFTCQDIFKETNATYPSSDVPCDATLTEKSFETDMNLNFQNLSVMGLRILLLKVAGFNLLMTLRLWSS
TCR beta: B7 TCR beta with T97V, T99G, E100I, K101E, L102A, S106Q, Q109R, S111T, L113V
B11: TCR_1, P01849 1-136 (TCR, not shown: a dimerising Fc or GST)
TCR alpha: GENVEQHPSTLSVQEGDSAVIKCTYSDSASNYFPWYKQELGKGPQLIIDIRSNVGEKKDQRIAVTLNKTAKHFSLHITETQPEDSAVYFCAASDLNFGKGTSLLVTPHIQNPEPAVYQLKDPRSQDSTLCLFTDFDSQINVPKTMESGTFITDKTVLDMKAMDSKSNGAIAWSNQTSFTCQDIFKETNATYPSSDVPCDATLTEKSFETDMNLNFQNLSVMGLRILLLKVAGFNLLMTLRLWSS
TCR beta: DTGVSQNPRHKITKRGQNVTFRCDPISEHNRLYWYRQTLGQGPEFLTYFQNEAQLEKSRLLSDRFSAERPKGSFSTLEIQRTEQGDSAMYLCASSLVSRVDGYTFGSGTRLTVVE
B12: TCR_2, P01849 1-136 (TCR, not shown: a dimerising Fc or GST)
TCR alpha: GENVEQHPSTLSVQEGDSAVIKCTYSDSASNYFPWYKQELGKGPQLIIDIRSNVGEKKDQRIAVTLNKTAKHFSLHITETQPEDSAVYFCAAHTPGYSTLTFGKGTMLLVSPDIQNPEPAVYQLKDPRSQDSTLCLFTDFDSQINVPKTMESGTFITDKTVLDMKAMDSKSNGAIAWSNQTSFTCQDIFKETNATYPSSDVPCDATLTEKSFETDMNLNFQNLSVMGLRILLLKVAGFNLLMTLRLWSS
TCR beta: DTGVSQNPRHKITKRGQNVTFRCDPISEHNRLYWYRQTLGQGPEFLTYFQNEAQLEKSRLLSDRFSAERPKGSFSTLEIQRTEQGDSAMYLCASSPRAGGETQYFGPGTRLLVLE

Target: T1, HA-1^H (minor histocompatibility …)
Test: killing

Row | Binder | binding result
1 | B1 | recognises

Target: T2, HA-1^R (minor histocompatibility …)
Test: cytokine release

Row | binding result | Binder
2 | no recognition | B2

Target: T3, Astn1 P1268L (control peptide) peptide …
Test: cytokine release

Row | binding result | Binder
3 | no recognition | B2
4 | no recognition | B3
5 | no recognition | B4
6 | no recognition | B5
7 | no recognition | B1
8 | no recognition | B6

Target: T1, HA-1^H (minor histocompatibility …)
Test: multimer staining
From the text: Transduced CD8 T cells were enriched by FACS using the murine constant beta region as a marker for transduction. After expansion of these cells, they were stained with an HA-1^H-MHC-multimer and antibodies against CD8 and the murine constant beta region (mCb) and analyzed by flow cytometry.
The nucleotide sequences of the isolated TCRs were codon optimized using the GeneOptimizer™ algorithm (ThermoFisher) and the constant regions were murinized. Codon optimized and murinized TCRs were used for all further experiments described herein. They were stained with an HA-1^H-MHC-multimer (immunAware) and antibodies against CD8 and the murine constant beta region. […] (FIG. 1)

Row | binding result | Binder
9 | recognises | B2
10 | recognises | B3
11 | recognises | B4
12 | recognises | B5
13 | recognises | B6

Target: HA-1^R-peptide (…) loaded on HLA-A*02:01 encoded molecules on T2 cells (human)
Test: cell-based or functional assay

Row | peptide concentration needed for recognition (IFN-γ release), relative to HA-1^H [times] | Binder
14 | > 10000 | B7
15 | > 10000 | B8
16 | > 10000 | B9
17 | > 10000 | B10
18 | > 10000 | B11
19 | > 10000 | B12
